Results reported in article PMC9427764.

Experiments:
[1] = Azi photo-cross-linking, immunoblot; details: glycan lost; control: untreated PD-L1-V76Azi cells
[2] = Azi photo-cross-linking in HEK293T, anti-Flag blot; details: glycan lost; control: PD-L1-Azi without NQ mutations

Row | Substance | oligomerisation [1] | oligomerisation [2]
1 | PD-L1: 5 µM tunicamycin, 24 h | decreases | –
2 | PD-L1: 4NQ | – | decreases
